Changes are numbered by the printed parent chain. “And” between values parts separate entries of the source, which are not always exact repeats. Identical values can stand only once. One block for each binder: values may come before it. Ends that are not written are not given here. * marks the point of attachment. Biotin = O=C1N[C@H]2[C@H](CS[C@H]2CCCCC(=O)*)N1
Columns and labels:
peptide 43 (QQQQQQQQQQ) = biological target: T1, peptide 43 (QQQQQQQQQQ); assay: peptide ELISA, biotinylated peptide captured on streptavidin
T1 peptide: Biotin-QQQQQQQQQQ

PWG-gliadin [1] = biological target: T2, PWG-gliadin (wheat); assay: SPR (Biacore T200), gliadin amine-coupled, antibody as analyte; 'as shown in the examples'
T2 construct: also called Gluten; glutenin

[2] = biological target: T3, peptide PQQPYPQPQP (SEQ ID NO: 50); assay: peptide ELISA; biotinylated crude peptide on streptavidin, mAb 0.5 µg/ml; value given for group A
T3 construct: Crude 10-mer of the peptide library from antigen 1/2/3; also called group A peptide
T3 peptide: Biotin-PQQPYPQPQP

[3] = biological target: T4, peptide PQPQLPYPQP (SEQ ID NO: 51); assay: as above
T4 construct: Crude 10-mer of the peptide library; also called group A peptide
T4 peptide: Biotin-PQPQLPYPQP

[4] = biological target: T5, peptide QLPYPQPQLP (SEQ ID NO: 52); assay: as above
T5 construct: Crude 10-mer of the peptide library; also called group A peptide
T5 peptide: Biotin-QLPYPQPQLP

[5] = biological target: T6, peptide PQLPYPQPQP (SEQ ID NO: 53); assay: as above
T6 construct: Crude 10-mer of the peptide library; also called group A peptide
T6 peptide: Biotin-PQLPYPQPQP

[6] = biological target: T7, peptide PPQQPYPQPQ (SEQ ID NO: 54); assay: as above
T7 construct: Crude 10-mer of the peptide library; also called group A peptide
T7 peptide: Biotin-PPQQPYPQPQ

[7] = biological target: T8, peptide SPQQPYPQPQ (SEQ ID NO: 55); assay: as above
T8 construct: Crude 10-mer of the peptide library; also called group A peptide
T8 peptide: Biotin-SPQQPYPQPQ

[8] = biological target: T9, peptide QPQLPYPQPQ (SEQ ID NO: 56); assay: as above
T9 construct: Crude 10-mer of the peptide library; also called group A peptide
T9 peptide: Biotin-QPQLPYPQPQ

[9] = biological target: T10, peptide PQLPYPQPQL (SEQ ID NO: 57); assay: as above
T10 construct: Crude 10-mer of the peptide library; also called group A peptide
T10 peptide: Biotin-PQLPYPQPQL

[10] = biological target: T11, peptide PQQPYPQSQP (SEQ ID NO: 58); assay: as above
T11 construct: Crude 10-mer of the peptide library; also called group A peptide
T11 peptide: Biotin-PQQPYPQSQP

[11] = biological target: T12, peptide PPQLPYPQPP (SEQ ID NO: 59); assay: as above
T12 construct: Crude 10-mer of the peptide library; also called group A peptide
T12 peptide: Biotin-PPQLPYPQPP

[12] = biological target: T13, peptide PFPPQQPYPQ (SEQ ID NO: 60); assay: peptide ELISA; biotinylated crude peptide on streptavidin, mAb 0.5 µg/ml; value given for group B
T13 construct: Crude 10-mer of the peptide library; also called group B peptide
T13 peptide: Biotin-PFPPQQPYPQ

[13] = biological target: T14, peptide YPQPQLPYPQ (SEQ ID NO: 61); assay: as above
T14 construct: Crude 10-mer of the peptide library; also called group B peptide
T14 peptide: Biotin-YPQPQLPYPQ

[14] = biological target: T15, peptide PFRPQQPYPQ (SEQ ID NO: 62); assay: as above
T15 construct: Crude 10-mer of the peptide library; also called group B peptide
T15 peptide: Biotin-PFRPQQPYPQ

PWG-gliadin [15] = biological target: T2, PWG-gliadin; assay: SPR, Biacore T200; Glutenin amine-coupled to the chip, antibody as analyte 3-243 nM; 1:1 binding fit; Chi2 16 RU2, U-value 2
Description: (§1) In this experiment, glutenin protein was coated through amine coupling method, the antibodies were flowed over the sensor chip as analytes. The experiment was carried out using the following protocol.
(§2) Coat glutenin onto the Series S Sensor Chip CM5 via primary amine groups using the following conditions: [0123] (1) Equilibrate: HBS-EP, flow rate 10 μl/min, 5 min; [0124] […] (3) Couple ligand: inject glutenin (15 μg/ml, 10 mM sodium acetate, pH 4.5), flow rate 10 μl/min, until ˜300 RU of glutenin is coated; [0126] (4) Deactivate excess reactive groups: inject ethanolamine, flow rate 10 μl/min, 7 min.
(§3) In this study, the binding affinities between glutenin and three monoclonal antibodies were determined. The experiment was carried out where glutenin was amine coupled to the sensor chip and antibodies were used as analytes. The result of is with good curve fitting and low U-values, and thus is reliable.

[16] = biological target: T13, peptide PFPPQQPYPQ (SEQ ID NO: 60); assay: peptide ELISA; group B; the number is missing in the cell
[17] = biological target: T14, peptide YPQPQLPYPQ (SEQ ID NO: 61); assay: as above
[18] = biological target: T15, peptide PFRPQQPYPQ (SEQ ID NO: 62); assay: as above
PWG-gliadin [19] = biological target: T2, PWG-gliadin; assay: SPR, Biacore T200; Glutenin amine-coupled to the chip, antibody as analyte 3-243 nM; 1:1 binding fit; Chi2 29.9 RU2, U-value 2
Description: as §1, §2, §3

binding result (peptide 43 (QQQQQQQQQQ)): no binding | Kd (PWG-gliadin [1]): < 50 nM and ~30 nM | OD450nm [2]: ~1 | OD450nm [3]: ~1 | OD450nm [4]: ~1 | OD450nm [5]: ~1 | OD450nm [6]: ~1 | OD450nm [7]: ~1 | OD450nm [8]: ~1 | OD450nm [9]: ~1 | OD450nm [10]: ~1 | OD450nm [11]: ~1 | OD450nm [12]: < 0.5 | OD450nm [13]: < 0.5 | OD450nm [14]: < 0.5 | Kd (PWG-gliadin [15]): 30.6 nM | koff (PWG-gliadin [15]): 0.00225 s⁻¹ | kon (PWG-gliadin [15]): 73600 M⁻¹ s⁻¹
B1: 14G11 monoclonal antibody (antibody, IgG1, V domains shown)
VH: QIQLVQSGPEMKKPGETVKIFCKASGYTLTDYSMHWVKQAPGKGLKWMGWINTETGEPTYADDFKGRCAFSLETSVSTAFLQINNLKNEDMGTYFCASSGAWFSYWGQGTLVTVSA
VL: DVLLTQTPLSLPVSLGDQASISCRSSQTIVQINGNTHLEWFLQKPGQSPKLLIYKVSNRFSGVPDRFSGSGSGTDFTLKISRVEAEDLGIYYCFQGSHVPFTFGSGTKLEIK
notes: also called 14G11 monoclonal Ab

binding result (peptide 43 (QQQQQQQQQQ)): no binding | binding result [16]: binds | binding result [17]: binds | binding result [18]: binds | Kd (PWG-gliadin [1]): < 10 nM and 5 nM to 6 nM (2×) | OD450nm [2]: ~2 | OD450nm [3]: ~2 | OD450nm [4]: ~2 | OD450nm [5]: ~2 | OD450nm [6]: ~2 | OD450nm [7]: ~2 | OD450nm [8]: ~2 | OD450nm [9]: ~2 | OD450nm [10]: ~2 | OD450nm [11]: ~2 | Kd (PWG-gliadin [19]): 5.81 nM | koff (PWG-gliadin [19]): 0.000663 s⁻¹ | kon (PWG-gliadin [19]): 114000 M⁻¹ s⁻¹
B2: 13F6 monoclonal antibody (antibody, IgG2b, V domains shown)
VH: QIQLVQSGPELKKPGETVKISCKASGYTFTDYSMHWVRQAPGKGLKWMGWINTETGEPTYADDFKGRFAFSLETSASTAYLQINNLKNEDTATHFCAPSVAWFAYWGQGTLVTVST
VL: B1 VL with L4M, P12S, T28S, I32S, I90V
notes: also called 13F6 monoclonal Ab
